B1: CPEB3 Ribozyme (parent)
chain: UAACAGGGGGCCACAGCAGAAGCGUUCACGUCGCAGCCCCUGUCAGAUUCUGGUGAAUCUGCGAAUUCUGCUGUAUAUCUC

Variants of: B1
Test: self-cleavage, relative activity (ratio to wild type); higher = more cleavage; in vitro, sequencing
How it was run: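 Libraries of CPEB3 self-cleaving ribozyme mutants came from rounds of error-prone PCR and carried barcodes, which DNA sequencing matched to variants. In vitro transcription used T7 RNA polymerase at 37°C for 5 hours, with a further 15 min in DNase I before EDTA stopped the reaction; the ribozymes cleaved during both steps. The RNA was reverse transcribed with template switching and sequenced on Illumina. Relative activity is the cleaved/total read fraction of a variant divided by that of the unmutated ribozyme, averaged over three batches with at least 5 reads.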

| Variant | self-cleavage |
| --- | --- |
| C44A U48C | 0.32 |
| C44A U51A | 0.11 |
| C44A U54A | 0.59 |
| C44A U54C | 0.36 |
| C44A U60C | 0.17 |
| C44A U66G | 0.23 |
| C44A U67C | 0.16 |
| C44A U69C | 0.17 |
| C44A U69G | 0.13 |
| C44A U72C | 0.71 |
| C44A U74C | 0.63 |
| C44A U76C | 0.37 |
| C44A U78A | 0.49 |
| C44A U78C | 0.38 |
| C44A U80C | 0.41 |
| C44G | 0.52 |
| C44G A45G | 0.34 |
| C44G A45U | 0.13 |
| C44G A56G | 0.44 |
| C44G A57G | 0.45 |
| C44G A65U | 0.1 |
| C44G A77G | 0.62 |
| C44G C68A | 0.3 |
| C44G C71U | 0.15 |

| Variant | self-cleavage |
| --- | --- |
| C44G G63A | 0.65 |
| C44G U48C | 0.1 |
| C44G U49A | 0.23 |
| C44G U49C | 0.19 |
| C44G U60C | 0.38 |
| C44G U67C | 0.18 |
| C44G U72C | 0.54 |
| C44G U72G | 0.2 |
| C44G U74A | 1.18 |
| C44G U74C | 1.02 |
| C44G U76C | 0.58 |
| C44G U78C | 0.44 |
| C44G U80A | 0.52 |
| C44G U80C | 0.78 |
| C44U | 0.31 |
| C44U A45C | 0.46 |
| C44U A45G | 0.41 |
| C44U A47G | 0.35 |
| C44U A56G | 0.18 |
| C44U A64G | 0.21 |
| C44U A64U | 0.18 |
| C44U A65G | 0.13 |
| C44U A75U | 0.31 |
| C44U A77U | 0.22 |

| Variant | self-cleavage |
| --- | --- |
| C44U C62A | 0.14 |
| C44U C79U | 0.16 |
| C44U C81A | 0.11 |
| C44U G52U | 0.46 |
| C44U G55A | 0.07 |
| C44U G61C | 0.2 |
| C44U U48C | 0.44 |
| C44U U51A | 0.35 |
| C44U U51C | 0.1 |
| C44U U54A | 0.36 |
| C44U U54C | 0.32 |
| C44U U58C | 0.28 |
| C44U U60A | 0.14 |
| C44U U60C | 0.52 |
| C44U U66A | 0.51 |
| C44U U67A | 0.14 |
| C44U U67C | 0.11 |
| C44U U69A | 0.13 |
| C44U U69C | 0.17 |
| C44U U72A | 0.14 |
| C44U U72C | 0.19 |
| C44U U74C | 0.6 |
| C44U U76A | 0.14 |
| C44U U76C | 0.25 |

| Variant | self-cleavage |
| --- | --- |
| C44U U78A | 0.3 |
| C44U U78C | 0.35 |
| C44U U78G | 0.12 |
| C44U U80A | 0.46 |
| C44U U80C | 0.29 |
| A45C | 0.38 |
| A45C A47G | 0.17 |
| A45C A56C | 0.42 |
| A45C A56G | 0.26 |
| A45C A56U | 0.25 |
| A45C A57G | 0.26 |
| A45C A64G | 0.32 |
| A45C A64U | 0 |
| A45C A65G | 0.42 |
| A45C A65U | 0.12 |
| A45C A75G | 0.14 |
| A45C A75U | 0.5 |
| A45C A77G | 0.25 |
| A45C A77U | 0.39 |
| A45C C59U | 0.22 |
| A45C C62U | 0.36 |
| A45C C68U | 0.28 |
| A45C C81U | 0.45 |
| A45C G55C | 0.11 |

| Variant | self-cleavage |
| --- | --- |
| A45C G63A | 0.49 |
| A45C G63C | 0.52 |
| A45C G73A | 1.19 |
| A45C U48C | 0.4 |
| A45C U49C | 0.11 |
| A45C U51A | 0.41 |
| A45C U51C | 0.32 |
| A45C U54A | 0.45 |
| A45C U54C | 0.4 |
| A45C U58C | 0.33 |
| A45C U60A | 0.33 |
| A45C U60C | 0.41 |
| A45C U66C | 0.31 |
| A45C U67C | 0.15 |
| A45C U69A | 0.14 |
| A45C U69C | 0.27 |
| A45C U72A | 0.38 |
| A45C U72C | 0.49 |
| A45C U74C | 0.7 |
| A45C U74G | 0.68 |
| A45C U76A | 0.5 |
| A45C U78C | 0.42 |
| A45C U80A | 0.48 |
| A45C U80C | 0.4 |

| Variant | self-cleavage |
| --- | --- |
| A45G | 0.85 |
| A45G A47G | 0.46 |
| A45G A47U | 0.28 |
| A45G A56C | 0.39 |
| A45G A56G | 0.6 |
| A45G A56U | 0.4 |
| A45G A57C | 0.24 |
| A45G A57G | 0.66 |
| A45G A57U | 0.43 |
| A45G A64G | 0.65 |
| A45G A64U | 0.3 |
| A45G A65C | 0.24 |
| A45G A65G | 0.35 |
| A45G A65U | 0.27 |
| A45G A75C | 1.01 |
| A45G A75G | 0.77 |
| A45G A75U | 0.91 |
| A45G A77C | 0.48 |
| A45G A77G | 0.87 |
| A45G A77U | 0.9 |
| A45G C50G | 0.28 |
| A45G C50U | 0.74 |
| A45G C59A | 0.63 |
| A45G C59G | 0.2 |

| Variant | self-cleavage |
| --- | --- |
| A45G C59U | 0.62 |
| A45G C62A | 0.45 |
| A45G C62G | 0.25 |
| A45G C62U | 0.22 |
| A45G C68A | 0.18 |
| A45G C68U | 0.88 |
| A45G C71G | 0.3 |
| A45G C71U | 0.65 |
| A45G C79A | 1.13 |
| A45G C79G | 1.12 |
| A45G C81A | 1.02 |
| A45G C81U | 1.07 |
| A45G G46A | 0.29 |
| A45G G46U | 0.21 |
| A45G G52A | 0.94 |
| A45G G52C | 0.91 |
| A45G G52U | 0.94 |
| A45G G55A | 0.43 |
| A45G G55C | 0.67 |
| A45G G55U | 0.4 |
| A45G G61A | 0.82 |
| A45G G61C | 0.23 |
| A45G G63A | 0.48 |
